In US10428140B2, “Anti-EphA4 antibody” (EISAI R&D MANAGEMENT CO., LTD., priority 2015, dated 2019):
Numbering of substitutions follows the chain as printed.

T1: human EphB6 (Homo sapiens, UniProt O15197)
T1 construct: a protein of the extracellular region of each human Eph receptor fused with the SEAP protein and the His tag; made in house; host or cells: Expi293F cells
T1 sequence (O15197 32-594 limits assumed): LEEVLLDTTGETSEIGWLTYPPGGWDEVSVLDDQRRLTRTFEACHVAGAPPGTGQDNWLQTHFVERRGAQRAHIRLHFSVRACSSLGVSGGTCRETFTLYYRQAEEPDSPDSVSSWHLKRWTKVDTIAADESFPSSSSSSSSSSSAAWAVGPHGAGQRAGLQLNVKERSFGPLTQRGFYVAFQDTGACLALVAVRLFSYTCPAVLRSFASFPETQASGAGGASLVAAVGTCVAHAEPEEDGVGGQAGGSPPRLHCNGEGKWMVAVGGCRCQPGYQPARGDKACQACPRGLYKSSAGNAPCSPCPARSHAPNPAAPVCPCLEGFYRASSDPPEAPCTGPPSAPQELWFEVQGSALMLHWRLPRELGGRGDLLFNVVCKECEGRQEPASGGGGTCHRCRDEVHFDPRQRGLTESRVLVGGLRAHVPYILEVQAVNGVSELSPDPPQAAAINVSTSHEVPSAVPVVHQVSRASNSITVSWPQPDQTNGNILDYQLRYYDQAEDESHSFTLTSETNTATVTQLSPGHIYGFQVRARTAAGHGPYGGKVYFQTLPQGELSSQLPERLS

T2: human EphA3 (Homo sapiens, UniProt P29320)
T2 construct: a protein of the extracellular region of each human Eph receptor fused with the SEAP protein and the His tag; made in house; host or cells: Expi293F cells (culture supernatant)
T2 sequence (P29320 21-541 limits assumed): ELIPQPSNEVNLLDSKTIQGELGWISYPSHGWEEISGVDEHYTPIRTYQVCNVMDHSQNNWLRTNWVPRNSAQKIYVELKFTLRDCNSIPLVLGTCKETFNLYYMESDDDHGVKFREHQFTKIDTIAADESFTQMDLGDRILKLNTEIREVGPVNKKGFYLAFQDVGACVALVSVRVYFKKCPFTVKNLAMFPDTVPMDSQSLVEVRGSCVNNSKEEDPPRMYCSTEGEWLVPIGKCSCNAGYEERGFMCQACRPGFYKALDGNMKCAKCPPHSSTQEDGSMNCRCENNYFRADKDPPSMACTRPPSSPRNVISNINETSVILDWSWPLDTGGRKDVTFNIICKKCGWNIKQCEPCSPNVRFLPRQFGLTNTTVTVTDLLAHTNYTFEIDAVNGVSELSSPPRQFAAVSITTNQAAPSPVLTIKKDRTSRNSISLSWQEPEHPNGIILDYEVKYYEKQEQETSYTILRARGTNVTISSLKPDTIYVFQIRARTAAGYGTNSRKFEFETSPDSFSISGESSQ

T3: human EphB4 (Homo sapiens, UniProt P54760)
T3 construct: a protein of the extracellular region of each human Eph receptor fused with the SEAP protein and the His tag; made in house; host or cells: Expi293F cells
T3 sequence (P54760 16-539 limits assumed): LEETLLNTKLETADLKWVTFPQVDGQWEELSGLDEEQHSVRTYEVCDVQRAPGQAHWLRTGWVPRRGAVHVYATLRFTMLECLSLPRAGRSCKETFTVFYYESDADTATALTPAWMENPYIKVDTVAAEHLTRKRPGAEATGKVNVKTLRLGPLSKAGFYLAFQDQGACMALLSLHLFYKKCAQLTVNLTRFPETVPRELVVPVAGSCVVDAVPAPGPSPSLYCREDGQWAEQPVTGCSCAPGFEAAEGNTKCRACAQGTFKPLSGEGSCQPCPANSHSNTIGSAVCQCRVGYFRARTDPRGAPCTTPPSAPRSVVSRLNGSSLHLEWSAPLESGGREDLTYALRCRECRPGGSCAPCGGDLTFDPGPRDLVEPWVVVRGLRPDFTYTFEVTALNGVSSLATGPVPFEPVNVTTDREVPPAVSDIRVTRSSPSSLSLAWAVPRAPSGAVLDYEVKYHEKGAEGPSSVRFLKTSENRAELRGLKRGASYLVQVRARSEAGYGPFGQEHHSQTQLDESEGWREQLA

B1: 88 (antibody, V domains shown)
VL: DIQMTQSPSSLSASVGDRVTITCRASENIYRNLAWYQQKPGKAPQLLLYAATNLADGVPSRFSGSGSGTDYTLTISSLQPEDFATYYCQHFWGTPWTFGQGTKVEIK
VH: QVQLVQSGSELKKPGASVKVSCKASGYTFTDYSMHWVRQAPGQGLKWMGWINTETGEPTYAQGFTGRFVFSLDTSVSTAYLQISSLKAEDTAVYYCARIPLYYYGSRYWYFDVWGQGTTVTVSS
modifications: constant regions without entry; synthetic humanized antibody light chain variable region sequence; synthetic humanized antibody heavy chain variable region sequence
B2: 89 (antibody, V domains shown)
VL: B1 VL
VH: B1 VH with V2I
modifications: constant regions without entry; synthetic humanized antibody light chain variable region sequence; synthetic humanized antibody heavy chain variable region sequence
B3: 90 (antibody, V domains shown)
VL: B1 VL
VH: B1 VH with K46E, Q62D, G63D, T65K
modifications: constant regions without entry; synthetic humanized antibody light chain variable region sequence; synthetic humanized antibody heavy chain variable region sequence
B4: 91 (antibody, V domains shown)
VL: B1 VL
VH: B1 VH with Q62D, G63D, T65K
modifications: constant regions without entry; synthetic humanized antibody light chain variable region sequence; synthetic humanized antibody heavy chain variable region sequence
B5: 92 (antibody, V domains shown)
VL: B1 VL
VH: B1 VH with V2I, Q62D, G63D, T65K
modifications: constant regions without entry; synthetic humanized antibody light chain variable region sequence; synthetic humanized antibody heavy chain variable region sequence
B6: 93 (antibody, V domains shown)
VL: EIVMTQSPATLSVSPGERATLSCRASENIYRNLAWYQQKPGQSPRLLIYAATNLADGIPARFSGSGSGTEYTLTISSLQSEDFAVYYCQHFWGTPWTFGQGTKVEIK
VH: B1 VH with K46E
modifications: constant regions without entry; synthetic humanized antibody light chain variable region sequence; synthetic humanized antibody heavy chain variable region sequence
B7: 94 (antibody, V domains shown)
VL: B6 VL
VH: B1 VH
modifications: constant regions without entry; synthetic humanized antibody light chain variable region sequence; synthetic humanized antibody heavy chain variable region sequence
B8: 71 (antibody, V domains shown)
VH: B1 VH with V2I
VL: B6 VL
modifications: synthetic humanized antibody heavy chain variable region sequence; synthetic humanized antibody light chain variable region sequence

Target: T1, human EphB6
Assay: Selectivity ELISA of humanized antibodies for human Eph receptor
Type: binding
Details: coated protein 1 nM
Description: (§1) According to the method described in Example 7, a DNA sequence encoding the signal sequence and the extracellular region of each human Eph receptor (EphA1, EphA2, EphA3, EphA4, EphA5, EphA6, EphA7, EphA8, EphA10, EphB1, EphB2, EphB3, EphB4, and EphB6) was amplified by RT-PCR using tissue-derived total RNA and cloned into a pENTR1A vector (Invitrogen/Life Technologies) having a DNA sequence encoding SEAP protein and histidine tag. Next, the DNA sequence encoding the signal sequence and the extracellular region of each human Eph receptor, SEAP protein, and histidine tag was transferred to a pcDNA3.1_rfcB vector through LR reaction using Gateway System (Invitrogen/Life Technologies) to construct a vector for the expression of a protein of the extracellular region of each human Eph receptor fused with the SEAP protein and the His tag (referred to as “Eph receptor extracellular region-SEAP-His protein”) (this vector is referred to as “Eph receptor extracellular region-SEAP-His protein expression vector”).
(§2) Next, each human Eph receptor extracellular region-SEAP-His protein expression vector was transferred to Expi293F cells (Gibco/Thermo Fisher Scientific) using Expi293 expression system (Gibco/Thermo Fisher Scientific). After incubation (5% CO2, 37° C.) for 5 days, the culture supernatant was recovered and centrifuged at 1500 rpm at room temperature for 5 minutes. The centrifugation supernatant was filtered through a 0.45-μm filter (Merck Millipore).
(§3) Each anti-EphA4 monoclonal humanized antibody obtained in Example 16 was evaluated for its binding activity against each human Eph receptor according to the following steps.
(§4) Each well of a 96-well plate (Nunc) was coated with a rabbit anti-6-His antibody (Bethyl Laboratories). Each well was […] After washing with 0.05% Tween 20/PBS (Nacalai Tesque) three times, the SEAP-His protein of human EphA1, EphA2, EphA3, EphA4, EphA5, EphA6, EphA7, EphA8, EphA10, EphB1, EphB2, EphB3, EphB4, or EphB6 was added (final concentration: 1 nM) to each well and incubated at room temperature for 1 hour. After washing three times, the humanized antibody was added to each well and incubated at room temperature for 1 hour. After washing three times, a horseradish peroxidase-labeled donkey […] IgG antibody (Jackson ImmunoResearch Laboratories) was added thereto and incubated at room temperature for 1 hour. After washing three times, TMB Microwell Peroxidase Substrate System (Kirkegaard & Perry Laboratories (KPL)) was added to each well. After confirmation of moderate color development, an equal amount of a reaction stopping solution (1N H2SO4, Wako Pure Chemical Industries) was added to each well. The absorbance at 450 nm was read using a microplate reader (Thermo Fisher Scientific).

Molecule | hEphB6-SEAP-: absorbance at 450 nm, percentage with respect to hEphA4-SEAP-His as 100%
B1 | 6.1%
B2 | 4.8%
B3 | 5.2%
B4 | 6.3%
B5 | 6.5%
B6 | 4.9%
B7 | 6.4%
B8 | 5.3%

Target: T2, human EphA3
Assay: as above
Type: binding
Details: coated protein 1 nM
Description: as §1, §2, §3, §4

Molecule | hEphA3-SEAP-: absorbance at 450 nm, percentage with respect to hEphA4-SEAP-His as 100%
B1 | 6.0%
B2 | 5.8%
B3 | 5.2%
B4 | 6.6%
B5 | 6.5%
B6 | 5.1%
B7 | 6.8%
B8 | 5.6%

Target: T3, human EphB4
Assay: as above
Type: binding
Details: coated protein 1 nM
Description: as §1, §2, §3, §4

Molecule | hEphB4-SEAP-: absorbance at 450 nm, percentage with respect to hEphA4-SEAP-His as 100%
B1 | 6.1%
B2 | 5.8%
B3 | 5.0%
B4 | 6.2%
B5 | 6.6%
B6 | 5.0%
B7 | 6.5%
B8 | 5.5%
